# In IntAct's records for PubMed 11579209:
# B1: Tyrosine-protein phosphatase non-receptor type 1 (Homo sapiens), P18031 (parent)
# chain: MEMEKEFEQIDKSGSWAAIYQDIRHEASDFPCRVAKLPKNKNRNRYRDVSPFDHSRIKLHQEDNDYINASLIKMEEAQRSYILTQGPLPNTCGHFWEMVWEQKSRGVVMLNRVMEKGSLKCAQYWPQKEEKEMIFEDTNLKLTLISEDIKSYYTVRQLELENLTTQETREILHFHYTTWPDFGVPESPASFLNFLFKVRESGSLSPEHGPVVVHCSAGIGRSGTFCLADTCLLLMDKRKDPSSVDIKKVLLEMRKFRMGLIQTADQLRFSYLAVIEGAKFIMGDSSVQDQWKELSHEDLEPPPEHIPPPPRPPKRILEPHNGKCREFFPNHQWVKEETQEDKDCPIKEEKGSPLNAAPYGIESMSQDTEVRSRVVGGSLRGAQAASPAKGEPSLPEKDEDHALSYWKPFLVNMCVATVLTAGAYLCYRFLFNSNT
# Variants of: B1
# Conditions: with insr_human INSR
row,effect of a mutation on the interaction,Variant
1,disrupting interaction,MEMEKEFEQIDKSGSWAAIYQDIRHEASDFPCRVAKLPKNKNRNRYRDVDPFDHSRIKLHQEDNDYINASLIKMEEAQRSYILTQGPLPNTCGHFWEMVWEQKSRGVVMLNRVMEKGSLKCAQYWPQKEEKEMIFEDTNLKLTLISEDIKSYYTVRQLELENLTTQETREILHFHYTTWPDFGVPESPASFLNFLFKVRESGSLSPEHGPVVVHCSAGIGRSGTFCLADTCLLLMDKRKDPSSVDIKKVLLEMRKFRMGLIQTADQLRFSYLAVIEGAKFIMGDSSVQDQWKELSHEDLEPPPEHIPPPPRPPKRILEPHNGKCREFFPNHQWVKEETQEDKDCPIKEEKGSPLNAAPYGIESMSQDTEVRSRVVGGSLRGAQAASPAKGEPSLPEKDEDHALSYWKPFLVNMCVATVLTAGAYLCYRFLFNSNT [S50D]

# Variants of: B1
# Conditions: with insr_human INSR
# Remark: another data set of the same source
row,effect of a mutation on the interaction,Variant
1,decreasing interaction,MEMEKEFEQIDKSGSWAAIYQDIRHEASDFPCRVAKLPKNKNRNRYRDVAPFDHSRIKLHQEDNDYINASLIKMEEAQRSYILTQGPLPNTCGHFWEMVWEQKSRGVVMLNRVMEKGSLKCAQYWPQKEEKEMIFEDTNLKLTLISEDIKSYYTVRQLELENLTTQETREILHFHYTTWPDFGVPESPASFLNFLFKVRESGSLSPEHGPVVVHCSAGIGRSGTFCLADTCLLLMDKRKDPSSVDIKKVLLEMRKFRMGLIQTADQLRFSYLAVIEGAKFIMGDSSVQDQWKELSHEDLEPPPEHIPPPPRPPKRILEPHNGKCREFFPNHQWVKEETQEDKDCPIKEEKGSPLNAAPYGIESMSQDTEVRSRVVGGSLRGAQAASPAKGEPSLPEKDEDHALSYWKPFLVNMCVATVLTAGAYLCYRFLFNSNT [S50A]
